Laboratory results reported in the RNAGym collection of RNA variant scans (doi:10.7554/elife.90254).

B1: OR4K15 (parent)
chain: GUUAACGGUCAUAGGCCAUGGAAACUAGGAGCACCAUUUCGCUGCCAGUGAAGAAAUGAACAAAGAAAAUCUGGGCCAGGCAGGCAUCAAAAGAAAUAGUCUUGCGCUCAACCAGAAAGUCUGUAAUCAUUUUAAGGGUA

Variants of: B1
Test: self-cleavage, relative activity (ratio to wild type); higher = more cleavage; in vitro, sequencing; the parent is a self-cleaving ribozyme

Row | Variant | self-cleavage
1 | GUUAACGGUCAUAGGCCAUGGAAACUAGGAGCACCAUUACGCUGCCAGUGAAGAAAUGAACAAAGAAAAUCUGGGCCAGGCAGGCAUCAAAAGAAGUAGUCUUGCGCUCAACCAGAAAGUCUGUAAUCAUUUUAAGGGUA [U39A A96G] | 1.56
2 | GUUAACGGUCAUAGGCCAUGGAAACUAGGAGCACCAUUACGCUGCCAGUGAAGAAAUGAACAAAGAAGAUCUGGGCCAGGCAGGCAUCAAAAGAAAUAGUCUUGCGCUCAACCAGAAAGUCUGUAAUCAUUUUAAGGGUA [U39A A68G] | 1.32
3 | GUUAACGGUCAUAGGCCAUGGAAACUAGGAGCACCAUUACGCUGCCAGUGAAGAAAUGAACAGAGAAAAUCUGGGCCAGGCAGGCAUCAAAAGAAAUAGUCUUGCGCUCAACCAGAAAGUCUGUAAUCAUUUUAAGGGUA [U39A A63G] | 1.95
4 | GUUAACGGUCAUAGGCCAUGGAAACUAGGAGCACCAUUACGCUGCCAGUGGAGAAAUGAACAAAGAAAAUCUGGGCCAGGCAGGCAUCAAAAGAAAUAGUCUUGCGCUCAACCAGAAAGUCUGUAAUCAUUUUAAGGGUA [U39A A51G] | 2.15
5 | GUUAACGGUCAUAGGCCAUGGAAACUAGGAGCACCAUUACGCUGCCAGUGAAGAAAUGAACAAAGGAAAUCUGGGCCAGGCAGGCAUCAAAAGAAAUAGUCUUGCGCUCAACCAGAAAGUCUGUAAUCAUUUUAAGGGUA [U39A A66G] | 1.87
6 | GUUAACGGUCAUAGGCCAUGGAAACUAGGAGCACCAUUACGCUGCCAGUGAAGUAAUGAACAAAGAAAAUCUGGGCCAGGCAGGCAUCAAAAGAAAUAGUCUUGCGCUCAACCAGAAAGUCUGUAAUCAUUUUAAGGGUA [U39A A54U] | 1.18
7 | GUUAACGGUCAUAGGCCAUGGAAACUAGGAGCACCAUUACGCUGCCAGUGAAGAAAUGAACAAUGAAAAUCUGGGCCAGGCAGGCAUCAAAAGAAAUAGUCUUGCGCUCAACCAGAAAGUCUGUAAUCAUUUUAAGGGUA [U39A A64U] | 1.87
8 | GUUAACGGUCAUAGGCCAUGGAAACUAGGAGCACCAUUACGCUGCCAGUGAAGAAAUGAACAAGGAAAAUCUGGGCCAGGCAGGCAUCAAAAGAAAUAGUCUUGCGCUCAACCAGAAAGUCUGUAAUCAUUUUAAGGGUA [U39A A64G] | 0.93
9 | GUUAACGGUCAUAGGCCAUGGAAACUAGGAGCACCAUUACGCUGCCAGUGAAGAAAUGAACAAAGAAAAUCUGGGCCAGGCAGGCAUCUAAAGAAAUAGUCUUGCGCUCAACCAGAAAGUCUGUAAUCAUUUUAAGGGUA [U39A A89U] | 2.25
10 | GUUAACGGUCAUAGGCCAUGGAAACUAGGAGCACCAUUACGCUGCCAGUGAAGAAAUGAACAAAGAAAAUCUGGGCCAGGCAGGCAUCGAAAGAAAUAGUCUUGCGCUCAACCAGAAAGUCUGUAAUCAUUUUAAGGGUA [U39A A89G] | 2.23
11 | GUUAACGGUCAUAGGCCAUGGAAACUAGGAGCACCAUGUCGCUGCCAGUGAAGAAAUGAACAAAGAAAAUCUGGGCCAGGCAGGCAUCAAAAGAAAUAGUCUUGCGCUCAACCAGAAAGUCUGUAACCAUUUUAAGGGUA [U38G U127C] | 1.37
12 | GUUAACGGUCAUAGGCCAUGGAAACUAGGAGCACCAUUACGCUGCCAGUGAAGAAAUGAACAAAGAAAAUCUGGGCCAGGCAGGCAUCAAAAGAGAUAGUCUUGCGCUCAACCAGAAAGUCUGUAAUCAUUUUAAGGGUA [U39A A95G] | 2.05
13 | GUUAACGGUCAUAGGCCAUGGAAACUAGGAGCACCAUUACGCUGCCAGUGAUGAAAUGAACAAAGAAAAUCUGGGCCAGGCAGGCAUCAAAAGAAAUAGUCUUGCGCUCAACCAGAAAGUCUGUAAUCAUUUUAAGGGUA [U39A A52U] | 1.65
14 | GUUAACGGUCAUAGGCCAUGGAAACUAGGAGCACCAUUACGCUGCCAGUGAAGAAAUGAACAAAGAAAAUCUGGGCCAGGCAGGCAUCAAAAGAAAUAGUCUUGCGCUCGACCAGAAAGUCUGUAAUCAUUUUAAGGGUA [U39A A110G] | 0.04
15 | GUUAACGGUCAUAGGCCAUGGAAACUAGGAGCACCAUUACGCUGCCAGUGAAGAAAUGAACAAAGAAAAUCUGGGCCAGGCAGGCAUCAAAAGAAAUAGUCUUGCGCUCUACCAGAAAGUCUGUAAUCAUUUUAAGGGUA [U39A A110U] | 2.06
16 | GUUAACGGUCAUAGGCCAUGGAAACUAGGAGCACCAUUACGCUGCCAGUGAAGAAGUGAACAAAGAAAAUCUGGGCCAGGCAGGCAUCAAAAGAAAUAGUCUUGCGCUCAACCAGAAAGUCUGUAAUCAUUUUAAGGGUA [U39A A56G] | 1.59
17 | GUUAACGGUCAUAGGCCAUGGAAACUAGGAGCACCAUUACGCUGCCAGUGAAGAAAUGAACGAAGAAAAUCUGGGCCAGGCAGGCAUCAAAAGAAAUAGUCUUGCGCUCAACCAGAAAGUCUGUAAUCAUUUUAAGGGUA [U39A A62G] | 1.21
18 | GUUAACGGUCAUAGGCCAUGGAAACUAGGAGCACCAUUACGCUGCCGGUGAAGAAAUGAACAAAGAAAAUCUGGGCCAGGCAGGCAUCAAAAGAAAUAGUCUUGCGCUCAACCAGAAAGUCUGUAAUCAUUUUAAGGGUA [U39A A47G] | 0.44
19 | GUUAACGGUCAUAGGCCAUGGAAACUAGGAGCACCAUUACGCUGCCAGUGAAGAAAUGAACAAAGAAAAUCUGGGCCAGGCAGGCGUCAAAAGAAAUAGUCUUGCGCUCAACCAGAAAGUCUGUAAUCAUUUUAAGGGUA [U39A A86G] | 1.76
20 | GUUAACGGUCAUAGGCCAUGGAAACUAGGAGCACCAUUACGCUGCCAGUGAAGAAAUGAACAAAGAAAAUCUGGGCCAGGCAGGCAUCAGAAGAAAUAGUCUUGCGCUCAACCAGAAAGUCUGUAAUCAUUUUAAGGGUA [U39A A90G] | 0.95
21 | GUUAACGGUCAUAGGCCAUGGAAACUAGGAGCACCAUUACGCUGCCAGUGAAGAAAUGAACAAAGAAAAUCUGGGCCAGGCAGGCAUCAAUAGAAAUAGUCUUGCGCUCAACCAGAAAGUCUGUAAUCAUUUUAAGGGUA [U39A A91U] | 0.94
